Publication PMC10793675 (mAbs, 2023)
Residue numbers refer to the chain shown, from its start. One block for each binder: values may come before it.

How the values were obtained:
[1] = target: T1, biotinylated avi-tagged canine PD-1 soluble protein (canine, biotin); assay: ELISA
T1 chain: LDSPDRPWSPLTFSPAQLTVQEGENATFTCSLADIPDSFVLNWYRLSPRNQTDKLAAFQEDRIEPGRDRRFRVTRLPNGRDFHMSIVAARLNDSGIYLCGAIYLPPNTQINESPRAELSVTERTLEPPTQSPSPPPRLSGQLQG

[2] = target: canine PD-1 expressed on the surface of KTδ32 cells (Canis lupus familiaris, UniProt A0A090BAM7); assay: flow cytometry on cells
[3] = target: recombinant canine PD-1 protein, His tag (Canis lupus familiaris, UniProt A0A090BAM7); assay: SPR

binding result [1]: binds | binding result [2]: binds
B1: P3C6 soluble scFv (scFv, V domains shown)
VH: EVQLVQSGGDLVKPGGSLRLSCMASGFTFSKYGMSWVRQSPGKGLQWVADIAANGGTYYTDAVKGRFTISRDNAKNALYLQMDDLRAEDTAVYYCARWGGAPFDYWGQGTLVTVSS
VL: EIVMTQSPASLSLSQEEKVTITCRASQSVSSYLAWYQQKPGQAPKLLIYGTSNRATGVPSRFSGSGSGTDFSFTISSLEPEDVAVYYCQQGLQYPITFGKGTHLEIK

binding result [2]: binds
B2: P3C6mut3.2 full-length canine IgGD (antibody, V domains shown)
VH: B1 VH with L11V, M23V, A77T, D83N, D84S
VL: B1 VL

binding half-life [3]: 1.35 h | koff [3]: 0.000143 s⁻¹ | kon [3]: 131000 M⁻¹ s⁻¹
B3: P3C6mut3.1 full-length canine IgGD (antibody, V domains shown)
VH: B1 VH with L11V, A77T, D83N, D84S
VL: B1 VL

binding result [1]: binds
B4: P4B1 soluble scFv (scFv, V domains shown)
VH: EVQLVQSGGDVVKPGGSLRLSCVASGFTFNTYGMNWVRQSPGKGLQWVAAIANSGSTYYADAVRGRFTISRDNAKNTLYLQMNSLRAEDAAIYYCASGIWGDWFYYWGQGTLVTVSS
VL: SSVLTQPPSVSVSLGQTATISCSGESLTKYYAQWFQQKPGQAPMLVIYKDTERPSGIPDRFSGSSSGNTHTLTISGARAEDEADYYCESAVSADAVVFGGGTHLTVL
